From article PMC11009412, “Pathogenic mutations of human phosphorylation sites affect protein–protein interactions” (Nature Communications, 2024)

B1: PDAP1 (protein, UniProt Q13442 1-181, looked up)
28 kDa heat- and acid-stable …: MPKGGRKGGHKGRARQYTSPEEIDAQLQAEKQKAREEEEQKEGGDGAAGDPKKEKKSLDSDESEDEEDDYQQKRKGVEGLIDIENPNRVAQTTKKVTQLDLDGPKELSRREREEIEKQKAKERYMKMHLAGKTEQAKADLARLAIIRKQREEAARKKEEERKAKDDATLSGKRMQSLSLNK
B2: MFAP1 (protein, UniProt P55081 2-439, looked up)
Microfibrillar-associated …: SVPSALMKQPPIQSTAGAVPVRNEKGEISMEKVKVKRYVSGKRPDYAPMESSDEEDEEFQFIKKAKEQEAEPEEQEEDSSSDPRLRRLQNRISEDVEERLARHRKIVEPEVVGESDSEVEGDAWRMEREDSSEEEEEEIDDEEIERRRGMMRQRAQERKNEEMEVMEVEDEGRSGEESESESEYEEYTDSEDEMEPRLKPVFIRKKDRVTVQEREAEALKQKELEQEAKRMAEERRKYTLKIVEEETKKELEENKRSLAALDALNTDDENDEEEYEAWKVRELKRIKRDREDREALEKEKAEIERMRNLTEEERRAELRANGKVITNKAVKGKYKFLQKYYHRGAFFMDEDEEVYKRDFSAPTLEDHFNKTILPKVMQVKNFGRSGRTKYTHLVDQDTTSFDSAWGQESAQNTKFFKQKAAGVRDVFERPSAKKRKTT
B3: MSANTD2 (protein, UniProt Q6P1R3 1-559, looked up)
Myb/SANT-like DNA-binding …: MAAPCGSELPANSPLKIPKMEVLSPASPGGLSDGNPSLSDPSTPRGASPLGPGSAAGSGAAASGGLGLGLGGRSAASSSVSFSPGGGGGGAAAAAAAACRGMSWTPAETNALIAVWGNERLVEARYQQLEGAGTVFGSKAPGPAMYERVSRALAELGYERTPSQCRERIKTLRRCYSRVKEHGVGKRKSSYTFEQLEQVFGQGGWDAQPCQPVLINSSGLYQELESDGSTMEDYSQEDWGNHSQDLHGYPTDQELDEIPVTKRTLKIKQESSEEAQKRDIMQNIVQILESVQLKWELFQSWTDFSRLHLSNKLAIFGIGYNTRWKEDIRYHYAEISSQVPLGKRLREYFNSEKPEGRIIMTRVQKMNWKNVYYKFLEITISEARCLELHMEIDWIPIAHSKPTGGNVVQYLLPGGIPKSPGLYAIGYEECIERPLSPHMEQSSLDPGKEGRVDLETLSAQASLQVEIEPTRIIYCYLGIAEVRTLQQCLFLHFQANTKTFSKDWVGINGFLSQNCIVDPGVSPKSIYIKFVEVERDFLSAGSLVECLEKAIGYPLKFNN
B4: KNOP1 (protein, UniProt Q1ED39 1-458, looked up)
Lysine-rich nucleolar protein …: MITKTHKVDLGLPEKKKKKKVVKEPETRYSVLNNDDYFADVSPLRATSPSKSVAHGQAPEMPLVKKKKKKKKGVSTLCEEHVEPETTLPARRTEKSPSLRKQVFGHLEFLSGEKKNKKSPLAMSHASGVKTSPDPRQGEEETRVGKKLKKHKKEKKGAQDPTAFSVQDPWFCEAREARDVGDTCSVGKKDEEQAALGQKRKRKSPREHNGKVKKKKKIHQEGDALPGHSKPSRSMESSPRKGSKKKPVKVEAPEYIPISDDPKASAKKKMKSKKKVEQPVIEEPALKRKKKKKRKESGVAGDPWKEETDTDLEVVLEKKGNMDEAHIDQVRRKALQEEIDRESGKTEASETRKWTGTQFGQWDTAGFENEDQKLKFLRLMGGFKNLSPSFSRPASTIARPNMALGKKAADSLQQNLQRDYDRAMSWKYSRGAGLGFSTAPNKIFYIDRNASKSVKLED
B5: NPAT (protein, UniProt Q14207 1-1427, looked up)
Protein NPAT: MLLPSDVARLVLGYLQQENLISTCQTFILESSDLKEYAEHCTDEGFIPACLLSLFGKNLTTILNEYVAMKTKETSNNVPAIMSSLWKKLDHTLSQIRSMQSSPRFAGSQRARTRTGIAEIKRQRKLASQTAPASAELLTLPYLSGQFTTPPSTGTQVTRPSGQISDPSRSYFVVVNHSQSQDTVTTGEALNVIPGAQEKKAHASLMSPGRRKSESQRKSTTLSGPHSTIRNFQDPNAFAVEKQMVIENAREKILSNKSLQEKLAENINKFLTSDNNIAQVPKQTDNNPTEPETSIDEFLGLPSEIHMSEEAIQDILEQTESDPAFQALFDLFDYGKTKNNKNISQSISSQPMESNPSIVLADETNLAVKGSFETEESDGQSGQPAFCTSYQNDDPLNALKNSNNHDVLRQEDQENFSQISTSIQKKAFKTAVPTEQKCDIDITFESVPNLNDFNQRGNSNAECNPHCAELYTNQMSTETEMAIGIEKNSLSSNVPSESQLQPDQPDIPITSFVSLGCEANNENLILSGKSSQLLSQDTSLTGKPSKKSQFCENSNDTVKLKINFHGSKSSDSSEVHKSKIEINVLEPVMSQLSNCQDNSCLQSEILPVSVESSHLNVSGQVEIHLGDSLSSTKQPSNDSASVELNHTENEAQASKSENSQEPSSSVKEENTIFLSLGGNANCEKVALTPPEGTPVENSHSLPPESVCSSVGDSHPESQNTDDKPSSNNSAEIDASNIVSLKVIISDDPFVSSDTELTSAVSSINGENLPTIILSSPTKSPTKNAELVKCLSSEETVGAVVYAEVGDSASMEQSLLTFKSEDSAVNNTQNEDGIAFSANVTPCVSKDGGYIQLMPATSTAFGNSNNILIATCVTDPTALGTSVSQSNVVVLPGNSAPMTAQPLPPQLQTPPRSNSVFAVNQAVSPNFSQGSAIIIASPVQPVLQGMVGMIPVSVVGQNGNNFSTPPRQVLHMPLTAPVCNRSIPQFPVPPKSQKAQGLRNKPCIGKQVNNLVDSSGHSVGCHAQKTEVSDKSIATDLGKKSEETTVPFPEESIVPAAKPCHRRVLCFDSTTAPVANTQGPNHKMVSQNKERNAVSFPNLDSPNVSSTLKPPSNNAIKREKEKPPLPKILSKSESAISRHTTIRETQSEKKVSPTEIVLESFHKATANKENELCSDVERQKNPENSKLSIGQQNGGLRSEKSIASLQEMTKKQGTSSNNKNVLSVGTAVKDLKQEQTKSASSLITTEMLQDIQRHSSVSRLADSSDLPVPRTPGSGAGEKHKEEPIDIIKAPSSRRFSEDSSTSKVMVPPVTPDLPACSPASETGSENSVNMAAHTLMILSRAAISRTTSATPLKDNTQQFRASSRSTTKKRKIEELDERERNSRPSSKNLTNSSIPMKKKKIKKKKLPSSFPAGMDVDKFLLSLHYDE

tested on: BirA*-FLAG-GATAD1 variants in Flp-In-293 cells; assay: BioID proximity labelling of full-length GATAD1 variants (SILAC); type: cell-based, human; details: GATAD1 WT vs S102P, forward experiment (label swap performed, sign inverted against the H/L ratio), log2 of normalized H/L ratio, significant proteins only
Source text: The GATAD1 gene variants were ordered in a pTwist ENTR Kozak vector from Twist Bioscience. The genes were then transferred to a pDEST_pcDNA5_BirA_FLAG_Nterm vector[97] using the Gateway Clonase II system (Thermo Fisher Scientific). The resulting vectors, pEXPR_GATAD1-WT_N-term_BirA_FLAG, pEXPR_GATAD1-S102P_N-term_BirA_FLAG, pEXPR_GATAD1-S102D_N-term_BirA_FLAG, and pEXPR_GATAD1-S102A_N-term_BirA_FLAG, were used to generate tetracycline-inducible stable Flp-In^TM-293 T-REx cells. A 6-well plate was co-transfected with 0.5 µg of the pEXPR plasmid and 1 µg of the pOG44 Flp-recombinase expression vector (Thermo Fisher Scientific) using 4.5 µg of PEI (Polysciences) as a transfection reagent. The following day, the cells were trypsinized and transferred to a 10 cm dish containing DMEM supplemented with 10% FCS and 200 µg/ml hygromycin B (Invivogen) for selection. The cells were cultured for approximately 18 days with media exchange every 3 days until visible colonies were observed. After around 18 days, the colonies were trypsinized and transferred to another 10 cm dish for further characterization and experiments.
Stable Flp-In^TM-293 cell lines expressing GATAD1 variants were cultured using SILAC light (Lys0, Arg0) and SILAC heavy (Lys8, Arg10) media, as explained in the cell culture section. After full labeling, cells were split into 15 cm dishes and were treated with 1 μg/mL tetracycline for 24 h to induce the expression of GATAD1. After the induction period, cells were incubated with 50 μM biotin overnight for proximity biotinylation. As a control, wild-type GATAD1 cells, without biotin or tetracycline addition, were used. Samples were multiplexed, as shown in Supplementary Fig. 41A with both forward and reverse label swap (n = 2). Cells were then lysed in lysis buffer (50 mM Tris-HCl pH 7.5, 150 mM NaCl, 1% Triton X-100, 1 mM EDTA, 1 mM EGTA, 0.1% SDS) with freshly added protease inhibitors and 1% sodium deoxycholate. To digest the excess DNA, 1 μl of Benzonase was added, and the samples were incubated for 20 min at 37 °C. Biotinylated proteins were enriched for 3 h at 4 °C using streptavidin-sepharose beads (GE Cat# 17-5113-01). Beads were pre-washed twice with 0.01% BSA and twice with lysis buffer. After enrichment, the beads were washed one time with lysis buffer, two times with washing buffer (50 mM HEPES-KOH pH 8.0, 100 mM KCl, 10% glycerol, 2 mM EDTA, 0.1% NP-40), and six times with 50 mM ammonium bicarbonate. Beads were resuspended in ammonium bicarbonate, and an on-bead protein digest with 1 μg of trypsin followed overnight. The next day, the digested proteins were transferred to a fresh tube and were incubated with 10 mM DTT for 30 min at 37 °C and with 55 mM iodoacetamide for 20 min at 37 °C in the dark. Samples were desalted with StageTips.
Peptides were separated using reversed-phase liquid chromatography (EASY nLC II 1200, Thermo Fisher Scientific) with self-made C18 microcolumns (20 cm long) packed with ReproSil-Pur C18-AQ 1.9 μm resin (Dr. Maisch, cat# r119.aq.0001). The chromatography system was coupled online to the electrospray ion source (Proxeon) of an Orbitrap Exploris 480 mass spectrometer (Thermo Fisher Scientific). The mobile phase consisted of buffer A (0.1% formic acid and 5% acetonitrile) and buffer B (0.1% formic acid and 80% acetonitrile). Peptides were eluted using a gradient with increasing concentrations of buffer B over 110 minutes, at a flow rate of 250 nl/min. Mass spectrometry data was acquired in data-dependent mode with settings for one full scan (resolution: 60,000; m/z range: 350–1600; normalized AGC target: 300%; maximum injection time: 10 ms), followed by top 20 MS/MS scans using higher-energy collisional dissociation (resolution: 15,000; m/z range: 200–2000; normalized AGC target: 100%; maximum injection time: 120 ms; isolation width: 1.3 m/z; normalized collision energy: 28%).
Raw files were analyzed with MaxQuant, version 2.0.3.0. […]

Molecule	Log2_Ratio.H.L.normalized.WT_S102P_forward
B1	1.555
B2	1.854
B3	1.423
B4	1.624
B5	1.209

same assay, conditions: GATAD1 WT vs S102P, forward experiment, normalized H/L ratio, significant proteins only

Molecule	Ratio.H.L.normalized.WT_S102P_forward
B1	0.3404
B2	0.2766
B3	0.373
B4	0.3245
B5	0.4326

same assay, conditions: GATAD1 WT vs S102P, reverse experiment, log2 of normalized H/L ratio, significant proteins only

Molecule	Log2_Ratio.H.L.normalized.WT_S102P_reverse
B1	1.001
B2	1.161
B3	1.156
B4	1.083
B5	1.214

same assay, conditions: GATAD1 WT vs S102P, reverse experiment, normalized H/L ratio, significant proteins only

Molecule	Ratio.H.L.normalized.WT_S102P_reverse
B1	2.0014
B2	2.2368
B3	2.2282
B4	2.1181
B5	2.3205
